Results reported in PMC9482650, “Quantitative fragmentomics allow affinity mapping of interactomes” (Nature Communications, 2022).

T1: SNTG1, Q9NSN8
T1 sequence (Q9NSN8 52-150, limits assumed, looked up): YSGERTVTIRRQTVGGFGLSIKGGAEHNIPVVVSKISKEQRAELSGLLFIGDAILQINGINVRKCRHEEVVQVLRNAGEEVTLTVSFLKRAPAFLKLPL

T2: NHERF3_3, Q5T2W1
T2 sequence (Q5T2W1 238-333, limits assumed, looked up): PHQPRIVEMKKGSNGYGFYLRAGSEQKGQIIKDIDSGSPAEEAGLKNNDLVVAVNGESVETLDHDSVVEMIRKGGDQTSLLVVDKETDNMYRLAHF

T3: TJP3_3, O95049
T3 sequence (O95049 375-456, limits assumed, looked up): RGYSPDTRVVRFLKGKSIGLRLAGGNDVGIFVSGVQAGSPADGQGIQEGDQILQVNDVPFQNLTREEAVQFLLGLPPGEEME

T4: APBA2_1, Q99767
T4 sequence (Q99767 563-664, limits assumed, looked up): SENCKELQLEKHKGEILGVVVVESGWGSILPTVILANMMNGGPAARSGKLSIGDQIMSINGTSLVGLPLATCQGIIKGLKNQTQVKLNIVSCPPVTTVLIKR

T5: ARHGEF11, O15085
T5 sequence (O15085 42-136, limits assumed, looked up): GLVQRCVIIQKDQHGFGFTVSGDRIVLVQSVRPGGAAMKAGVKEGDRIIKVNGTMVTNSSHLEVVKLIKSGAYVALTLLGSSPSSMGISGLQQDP

T6: GRIP1_3, Q9Y3R0
T6 sequence (Q9Y3R0 247-346, limits assumed, looked up): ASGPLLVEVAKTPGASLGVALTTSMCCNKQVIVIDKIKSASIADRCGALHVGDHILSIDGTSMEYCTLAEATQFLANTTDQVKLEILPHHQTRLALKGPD

T7: RHPN1, Q8TCX5
T7 sequence (Q8TCX5 508-602, limits assumed, looked up): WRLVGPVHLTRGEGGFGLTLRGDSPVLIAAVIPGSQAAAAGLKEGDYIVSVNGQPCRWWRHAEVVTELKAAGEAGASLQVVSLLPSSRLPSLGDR

T8: GRIP1_2, Q9Y3R0
T8 sequence (Q9Y3R0 145-248, limits assumed, looked up): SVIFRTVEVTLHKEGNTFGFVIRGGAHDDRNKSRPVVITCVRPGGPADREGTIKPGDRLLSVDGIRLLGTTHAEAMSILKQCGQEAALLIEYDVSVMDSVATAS

T9: RADIL, Q96JH8
T9 sequence (Q96JH8 971-1071, limits assumed, looked up): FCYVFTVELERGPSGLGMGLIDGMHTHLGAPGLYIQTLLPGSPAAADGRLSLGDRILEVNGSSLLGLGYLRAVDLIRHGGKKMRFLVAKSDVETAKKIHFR

T10: LIN7C, Q9NUP9
T10 sequence (Q9NUP9 88-185, limits assumed, looked up): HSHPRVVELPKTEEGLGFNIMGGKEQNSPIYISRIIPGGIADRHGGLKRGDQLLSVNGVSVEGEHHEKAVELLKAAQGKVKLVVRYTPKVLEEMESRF

T11: SYNJ2BP, P57105
T11 sequence (P57105 8-110, limits assumed, looked up): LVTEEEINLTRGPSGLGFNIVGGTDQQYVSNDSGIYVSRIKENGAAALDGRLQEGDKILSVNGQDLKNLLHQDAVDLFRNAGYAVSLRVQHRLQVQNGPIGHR

T12: NHERF3_1, Q5T2W1
T12 sequence (Q5T2W1 4-100, limits assumed, looked up): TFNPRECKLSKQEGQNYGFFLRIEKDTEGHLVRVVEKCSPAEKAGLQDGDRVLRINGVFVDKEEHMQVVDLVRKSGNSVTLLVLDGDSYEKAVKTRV


What was measured:
Assay in all cases: holdup assay
Design in all cases: key: below the threshold = too weak to quantify, mostly under pKd 3.1 to 4
Conditions in all cases: plain residues with an end cap or a label only (N-terminal biotin on a linker: ado-ado)
SNTG1, Q9NSN8 = molecular target: T1, SNTG1, Q9NSN8
IL16_4, Q14005 = molecular target: IL16_4, Q14005
Sequence of IL16_4, Q14005 (Q14005 1229-1329): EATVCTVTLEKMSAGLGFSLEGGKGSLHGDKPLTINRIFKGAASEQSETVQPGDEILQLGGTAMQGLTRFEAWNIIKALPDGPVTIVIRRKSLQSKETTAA

NHERF3_3, Q5T2W1 = molecular target: T2, NHERF3_3, Q5T2W1
TJP3_3, O95049 = molecular target: T3, TJP3_3, O95049
APBA2_1, Q99767 = molecular target: T4, APBA2_1, Q99767
GRID2IP_1, A4D2P6 = molecular target: GRID2IP_1, A4D2P6
Sequence of GRID2IP_1, A4D2P6 (A4D2P6 1-87): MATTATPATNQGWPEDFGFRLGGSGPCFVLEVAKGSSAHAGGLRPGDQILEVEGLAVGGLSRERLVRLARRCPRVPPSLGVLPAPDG

ARHGEF12, Q9NZN5-2 = molecular target: ARHGEF12, Q9NZN5-2
Sequence of ARHGEF12, Q9NZN5-2 (Q9NZN5 other isoform, or with tags, fused parts or gaps): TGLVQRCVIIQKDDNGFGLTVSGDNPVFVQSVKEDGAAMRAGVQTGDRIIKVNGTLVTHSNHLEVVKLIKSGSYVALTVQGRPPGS

ARHGEF11, O15085 = molecular target: T5, ARHGEF11, O15085
TJP1_2, Q07157 = molecular target: TJP1_2, Q07157
Sequence of TJP1_2, Q07157 (Q07157 181-274): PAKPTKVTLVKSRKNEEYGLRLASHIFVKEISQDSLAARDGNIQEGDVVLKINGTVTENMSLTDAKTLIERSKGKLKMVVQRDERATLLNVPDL

GRIP1_3, Q9Y3R0 = molecular target: T6, GRIP1_3, Q9Y3R0
RHPN1, Q8TCX5 = molecular target: T7, RHPN1, Q8TCX5
GRIP1_2, Q9Y3R0 = molecular target: T8, GRIP1_2, Q9Y3R0
RADIL, Q96JH8 = molecular target: T9, RADIL, Q96JH8
LIN7C, Q9NUP9 = molecular target: T10, LIN7C, Q9NUP9
HTRA1, Q92743 = molecular target: HTRA1, Q92743
Sequence of HTRA1, Q92743 (Q92743 360-477): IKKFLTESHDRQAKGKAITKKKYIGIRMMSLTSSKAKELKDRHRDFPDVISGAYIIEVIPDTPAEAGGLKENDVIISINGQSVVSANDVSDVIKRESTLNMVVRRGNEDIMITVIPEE

DLG2_3, Q15700 = molecular target: DLG2_3, Q15700
GRIP2_6, Q9C0E4 = molecular target: GRIP2_6, Q9C0E4
Sequence of GRIP2_6, Q9C0E4 (Q9C0E4 648-740): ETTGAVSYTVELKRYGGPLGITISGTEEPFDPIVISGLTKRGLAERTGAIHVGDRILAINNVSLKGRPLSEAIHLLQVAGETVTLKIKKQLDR

Inadl_10, Q8NI35 = molecular target: Inadl_10, Q8NI35
Sequence of Inadl_10, Q8NI35 (Q8NI35 1673-1763): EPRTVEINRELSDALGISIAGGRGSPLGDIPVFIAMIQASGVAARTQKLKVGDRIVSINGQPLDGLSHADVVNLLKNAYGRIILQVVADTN

SYNJ2BP, P57105 = molecular target: T11, SYNJ2BP, P57105
PDZRN4_1, Q6ZMN7 = molecular target: PDZRN4_1, Q6ZMN7
Sequence of PDZRN4_1, Q6ZMN7 (Q6ZMN7 213-318): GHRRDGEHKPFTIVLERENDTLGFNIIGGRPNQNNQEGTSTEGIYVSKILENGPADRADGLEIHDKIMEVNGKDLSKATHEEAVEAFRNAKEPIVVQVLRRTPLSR

MAGI1_1, Q96QZ7 = molecular target: MAGI1_1, Q96QZ7
Sequence of MAGI1_1, Q96QZ7 (Q96QZ7 1-106): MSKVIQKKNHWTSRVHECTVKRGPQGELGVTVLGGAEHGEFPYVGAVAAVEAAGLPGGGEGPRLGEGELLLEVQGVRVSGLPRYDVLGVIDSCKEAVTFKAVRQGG

DLG2_2, Q15700 = molecular target: DLG2_2, Q15700
NHERF3_1, Q5T2W1 = molecular target: T12, NHERF3_1, Q5T2W1
Inadl_2, Q8NI35 = molecular target: Inadl_2, Q8NI35
Sequence of Inadl_2, Q8NI35 (Q8NI35 238-335): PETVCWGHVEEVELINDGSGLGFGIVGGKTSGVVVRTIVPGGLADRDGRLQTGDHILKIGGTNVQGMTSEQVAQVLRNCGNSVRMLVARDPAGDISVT

LNX1_2, Q8TBB1 = molecular target: LNX1_2, Q8TBB1
Sequence of LNX1_2, Q8TBB1 (Q8TBB1 371-470): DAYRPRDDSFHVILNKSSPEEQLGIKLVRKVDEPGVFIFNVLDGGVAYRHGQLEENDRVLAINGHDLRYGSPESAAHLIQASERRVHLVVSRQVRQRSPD

CASK, O14936 = molecular target: CASK, O14936
Sequence of CASK, O14936 (O14936 487-570): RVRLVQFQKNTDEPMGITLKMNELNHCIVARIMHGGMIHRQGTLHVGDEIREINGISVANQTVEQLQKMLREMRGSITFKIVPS

| pKd (SNTG1, Q9NSN8) | pKd (IL16_4, Q14005) | pKd (NHERF3_3, Q5T2W1) | pKd (TJP3_3, O95049) | pKd (APBA2_1, Q99767) | pKd (GRID2IP_1, A4D2P6) | pKd (ARHGEF12, Q9NZN5-2) | pKd (ARHGEF11, O15085) | pKd (TJP1_2, Q07157) | pKd (GRIP1_3, Q9Y3R0) | pKd (RHPN1, Q8TCX5) | pKd (GRIP1_2, Q9Y3R0) | pKd (RADIL, Q96JH8) | pKd (LIN7C, Q9NUP9) | pKd (HTRA1, Q92743) | pKd (DLG2_3, Q15700) | pKd (GRIP2_6, Q9C0E4) | pKd (Inadl_10, Q8NI35) | pKd (SYNJ2BP, P57105) | pKd (PDZRN4_1, Q6ZMN7) | Binder | also measured |
| --- | --- | --- | --- | --- | --- | --- | --- | --- | --- | --- | --- | --- | --- | --- | --- | --- | --- | --- | --- | --- | --- |
| below the threshold | below the threshold | below the threshold | below the threshold | below the threshold | below the threshold | 4.95 | 4.13 | below the threshold | below the threshold | 3.58 | below the threshold | below the threshold | below the threshold | 3.69 | 3.76 | below the threshold | below the threshold | 3.67 | below the threshold | ALPLPQSSTC [IGF1R, P08069] | pKd (MAGI1_1, Q96QZ7): below the threshold; pKd (DLG2_2, Q15700): below the threshold; pKd (NHERF3_1, Q5T2W1): below the threshold; pKd (Inadl_2, Q8NI35): below the threshold; pKd (LNX1_2, Q8TBB1): below the threshold; pKd (CASK, O14936): below the threshold |
| below the threshold | below the threshold | below the threshold | 4.57 | below the threshold | below the threshold | below the threshold | 3.68 | 3.6 | below the threshold | below the threshold | 3.7 | 4.2 | below the threshold | 4.72 | 3.77 | below the threshold | below the threshold | 3.73 | below the threshold | RDFDYIADWC [PKN2, Q16513] | pKd (MAGI1_1, Q96QZ7): below the threshold; pKd (DLG2_2, Q15700): below the threshold; pKd (NHERF3_1, Q5T2W1): 4.27; pKd (Inadl_2, Q8NI35): below the threshold; pKd (LNX1_2, Q8TBB1): 3.83; pKd (CASK, O14936): 3.54 |

Second part, the binder before the results:

| Binder | pKd (SNTG1, Q9NSN8) | pKd (IL16_4, Q14005) | pKd (NHERF3_3, Q5T2W1) | pKd (TJP3_3, O95049) | pKd (APBA2_1, Q99767) | pKd (GRID2IP_1, A4D2P6) | pKd (ARHGEF12, Q9NZN5-2) | pKd (ARHGEF11, O15085) | pKd (TJP1_2, Q07157) | pKd (GRIP1_3, Q9Y3R0) | pKd (RHPN1, Q8TCX5) | pKd (GRIP1_2, Q9Y3R0) | pKd (RADIL, Q96JH8) | pKd (LIN7C, Q9NUP9) | pKd (HTRA1, Q92743) | pKd (DLG2_3, Q15700) | pKd (GRIP2_6, Q9C0E4) | pKd (Inadl_10, Q8NI35) | pKd (SYNJ2BP, P57105) | pKd (PDZRN4_1, Q6ZMN7) | also measured |
| --- | --- | --- | --- | --- | --- | --- | --- | --- | --- | --- | --- | --- | --- | --- | --- | --- | --- | --- | --- | --- | --- |
| RRLQGTSSMV [GOLT1A, Q6ZVE7] | 3.7 | below the threshold | below the threshold | below the threshold | below the threshold | below the threshold | 3.81 | below the threshold | below the threshold | below the threshold | 3.58 | below the threshold | 4.28 | below the threshold | 4 | 4.06 | below the threshold | below the threshold | 4.72 | below the threshold | pKd (MAGI1_1, Q96QZ7): below the threshold; pKd (DLG2_2, Q15700): 4.39; pKd (NHERF3_1, Q5T2W1): 4.09; pKd (Inadl_2, Q8NI35): below the threshold; pKd (LNX1_2, Q8TBB1): below the threshold; pKd (CASK, O14936): below the threshold |
| TGPWKNETTV [ADGRA1, Q86SQ6] | 4.19 | below the threshold | below the threshold | below the threshold | below the threshold | below the threshold | 4.05 | 4.09 | below the threshold | below the threshold | 4.55 | below the threshold | 4.04 | 4.27 | 4.26 | 4.64 | below the threshold | below the threshold | 5.13 | 4.31 | pKd (MAGI1_1, Q96QZ7): below the threshold; pKd (DLG2_2, Q15700): 5.1; pKd (NHERF3_1, Q5T2W1): below the threshold; pKd (Inadl_2, Q8NI35): below the threshold; pKd (LNX1_2, Q8TBB1): 3.62; pKd (CASK, O14936): below the threshold |
